The text below walks through data of publication PMC2276513.

Non-standard residues stand in square brackets, D forms with d. No end group written: not given here. *: point of attachment. Acm = CC(=O)NC*

This test concerns the target IGF-I receptor (human (endogenous in HT-29)) (UniProt P08069).
UniProt P08069, sequence (P08069 31-1367): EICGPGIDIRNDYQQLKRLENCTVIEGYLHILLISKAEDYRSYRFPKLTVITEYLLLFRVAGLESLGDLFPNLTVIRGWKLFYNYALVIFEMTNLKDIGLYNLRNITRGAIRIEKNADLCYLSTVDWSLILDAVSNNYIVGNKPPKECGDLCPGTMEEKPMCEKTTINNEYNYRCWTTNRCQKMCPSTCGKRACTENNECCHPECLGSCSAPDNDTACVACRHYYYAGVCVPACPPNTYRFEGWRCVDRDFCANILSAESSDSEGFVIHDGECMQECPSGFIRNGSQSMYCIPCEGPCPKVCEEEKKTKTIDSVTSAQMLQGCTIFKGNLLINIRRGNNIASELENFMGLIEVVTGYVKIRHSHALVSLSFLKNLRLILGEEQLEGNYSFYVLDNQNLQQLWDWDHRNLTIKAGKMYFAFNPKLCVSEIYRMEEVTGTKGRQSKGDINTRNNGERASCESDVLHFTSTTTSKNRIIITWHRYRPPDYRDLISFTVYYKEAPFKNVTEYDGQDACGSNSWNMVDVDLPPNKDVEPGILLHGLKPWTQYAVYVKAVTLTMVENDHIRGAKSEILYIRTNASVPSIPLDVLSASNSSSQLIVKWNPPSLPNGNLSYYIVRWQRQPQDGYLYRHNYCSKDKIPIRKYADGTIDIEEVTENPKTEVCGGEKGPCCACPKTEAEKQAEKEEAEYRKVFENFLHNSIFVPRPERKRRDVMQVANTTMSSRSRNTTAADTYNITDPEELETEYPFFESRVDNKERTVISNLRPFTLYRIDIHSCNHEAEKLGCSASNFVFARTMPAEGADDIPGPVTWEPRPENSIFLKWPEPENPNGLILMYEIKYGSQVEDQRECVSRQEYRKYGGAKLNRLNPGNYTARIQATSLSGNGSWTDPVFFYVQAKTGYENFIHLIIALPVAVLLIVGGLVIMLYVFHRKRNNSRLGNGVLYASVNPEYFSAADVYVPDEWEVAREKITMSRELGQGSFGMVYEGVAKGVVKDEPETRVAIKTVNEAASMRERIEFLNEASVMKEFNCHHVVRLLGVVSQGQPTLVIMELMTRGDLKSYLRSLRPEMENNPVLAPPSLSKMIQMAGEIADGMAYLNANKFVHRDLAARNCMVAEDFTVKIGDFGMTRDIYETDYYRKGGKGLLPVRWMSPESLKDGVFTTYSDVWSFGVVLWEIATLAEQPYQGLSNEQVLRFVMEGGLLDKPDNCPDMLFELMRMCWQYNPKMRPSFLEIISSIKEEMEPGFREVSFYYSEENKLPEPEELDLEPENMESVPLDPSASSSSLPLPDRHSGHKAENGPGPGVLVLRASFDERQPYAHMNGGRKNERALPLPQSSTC

B1: IGF-I D domain analogue peptide (M1557) (peptide)
peptide: [dY]C(Acm)[dA][dP][dL][dK][dP][dA][dK][dS][dA]-NH2
modifications: N-terminus assumed
SMILES: CC(=O)NCSC[C@H](NC(=O)[C@H](N)Cc1ccc(O)cc1)C(=O)N[C@H](C)C(=O)N1CCC[C@@H]1C(=O)N[C@H](CC(C)C)C(=O)N[C@H](CCCCN)C(=O)N1CCC[C@@H]1C(=O)N[C@H](C)C(=O)N[C@H](CCCCN)C(=O)N[C@H](CO)C(=O)N[C@H](C)C(N)=O
Molecule B1 gave a proliferation of HT-29 cells (modified Alamar Blue assay), 48 h with 0.001-1 uM M1557 in medium with 10% FBS: percent inhibition of 14 to 15%.
